Earlier results in article PMC9523730.

Target: 14-3-3ζ (Homo sapiens) (UniProt P63104)
Experiment: various biophysical approaches

Kd: 5 nM
Substance: 14-3-3ζ (from UniProt P63104)
